Data taken from US20210024639A1 (AGOMAB THERAPEUTICS, published 2021).

Legend:
[1] = molecular target: T1, native human MET on living human cells (human, UniProt P08581 25-1390); assay: flow cytometry, A549 cells
T1 construct: whole, on cells; also called Human cells (A549); HPAF-II
Protocol: (§1) We also analysed whether chimeric anti-MET antibodies bound to native human and mouse MET in living cells. […] Antibody binding to cells was analysed by flow cytometry using phycoerythrin-conjugated anti-human IgG1 antibodies (eBioscience) and a CyAn ADP analyser (Beckman Coulter). As a positive control for human MET binding, we used a commercial mouse anti-human MET antibody (R&D Systems) and phycoerythrin-conjugated anti-mouse IgG1 antibodies (eBioscience). As a positive control for mouse MET binding we used a commercial goat anti-mouse MET antibody (R&D Systems) and phycoerythrin-conjugated anti-goat IgG1 antibodies (eBioscience). […] Consistent with the data obtained in ELISA, maximal binding (EMAX) varied depending on antibody, but was similar in human and mouse cells.

[2] = molecular target: T1, native human MET on living human cells; assay: cell-based or functional assay
[3] = molecular target: T2, native mouse MET on living mouse cells (mouse, UniProt P16056 25-1379); assay: cell-based or functional assay
[4] = molecular target: T2, native mouse MET on living mouse cells; assay: flow cytometry, MLP29 cells
Protocol: as §1

[5] = molecular target: T3, mouse MET-Fc chimeric protein (R&D Systems) (mouse, UniProt P16056 25-929, limits assumed); assay: competition ELISA, mMET-Fc in solid phase, competitor 0.3 nM biotinylated mHGF
T3 construct: bought (R&D Systems); also called mMET; not shown: Fc
Protocol: (§2) To investigate along this line, we tested the competition between mAbs and HGF by ELISA. Recombinant human and mouse HGF (R&D Systems) were biotinylated at the N-terminus using NHS-LC-biotin (Thermo Scientific). MET-Fc protein, either human or mouse (R&D Systems), was immobilized in solid phase and then exposed to 0.3 nM biotinylated HGF, either human or mouse, in the presence of increasing concentrations of antibodies (0-120 nM).
(§3) A MET-Fc chimeric protein (either human or mouse) was immobilized in solid phase and exposed to a fixed concentration of biotinylated HGF (either human or mouse), in the presence of increasing concentrations of antibodies. […] Antibody-HGF competition is expressed as IC₅₀ (the concentration that achieves 50% competition) and IMAX (the maximum % competition reached at saturation).

[6] = molecular target: T4, human MET-Fc chimeric protein (R&D Systems) (human, UniProt P08581 25-932); assay: competition ELISA, hMET-Fc in solid phase, competitor 0.3 nM biotinylated hHGF
T4 construct: extracellular domain; bought (R&D Systems); also called hMET; not shown: Fc portion of human IgG1
T4 sequence (P08581 25-932, change not shown): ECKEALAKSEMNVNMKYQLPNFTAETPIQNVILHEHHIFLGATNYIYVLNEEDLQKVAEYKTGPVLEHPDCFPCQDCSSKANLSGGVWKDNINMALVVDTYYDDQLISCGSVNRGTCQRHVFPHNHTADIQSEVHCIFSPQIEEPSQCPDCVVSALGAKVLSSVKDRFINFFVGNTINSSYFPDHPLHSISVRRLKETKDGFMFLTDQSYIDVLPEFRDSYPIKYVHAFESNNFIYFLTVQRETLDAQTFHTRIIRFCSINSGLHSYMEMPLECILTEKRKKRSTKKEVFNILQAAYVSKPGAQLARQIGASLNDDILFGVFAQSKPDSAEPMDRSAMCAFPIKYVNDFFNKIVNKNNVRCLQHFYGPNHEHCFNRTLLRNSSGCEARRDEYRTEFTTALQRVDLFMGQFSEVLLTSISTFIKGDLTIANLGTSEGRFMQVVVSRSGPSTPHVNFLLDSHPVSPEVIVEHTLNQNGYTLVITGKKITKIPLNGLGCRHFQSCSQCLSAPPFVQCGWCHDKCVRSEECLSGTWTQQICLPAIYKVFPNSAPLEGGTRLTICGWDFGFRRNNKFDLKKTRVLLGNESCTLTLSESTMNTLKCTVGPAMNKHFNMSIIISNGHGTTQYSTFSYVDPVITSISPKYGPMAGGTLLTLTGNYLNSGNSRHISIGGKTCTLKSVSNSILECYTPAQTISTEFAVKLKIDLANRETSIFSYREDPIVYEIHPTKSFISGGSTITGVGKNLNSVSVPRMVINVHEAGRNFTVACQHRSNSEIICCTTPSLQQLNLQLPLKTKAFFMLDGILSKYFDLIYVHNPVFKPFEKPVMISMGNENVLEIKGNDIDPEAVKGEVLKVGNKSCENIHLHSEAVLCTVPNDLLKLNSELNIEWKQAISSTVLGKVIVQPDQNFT
Protocol: as §2, §3

[7] = molecular target: T1, native human MET on living human cells; assay: cell-based or functional assay; remark: listed apart in the source
[8] = molecular target: T2, native mouse MET on living mouse cells; assay: cell-based or functional assay; remark: listed apart in the source
[9] = molecular target: T5, human MET extracellular domain (ECD) (human, UniProt P08581 25-932); assay: ELISA, periplasmic Fab on MET ECD
T5 construct: range 1-932; recombinant ECD; also called hMET; human MET ECD
T5 sequence (P08581 25-932 limits assumed, form in doubt): as the sequence (P08581 25-932, change not shown) above
Protocol: Fab-expressing phages from the libraries described above were produced according to standard phage display protocols. For selection, phages were first adsorbed to immobilized recombinant human MET ECD, washed, and then eluted using trypsin. After two cycles of selection with human MET ECD, two other cycles were performed in the same fashion using mouse MET ECD. In parallel, we also selected phages alternating a human MET ECD cycle with a mouse MET ECD cycle, for a total of four cycles. Phages selected by the two approaches were pooled together and then used to infect TG1 E. coli. Individual colonies were isolated and secretion of Fabs was induced using IPTG (Fermentas). The Fab-containing periplasmic fraction of bacteria was collected and tested for its ability to bind human and mouse MET ECD by Surface Plasmon Resonance (SPR). Human or mouse MET ECD was immobilized on a CM-5 chip using amine coupling in sodium acetate buffer (GE Healthcare). The Fab-containing periplasmic extracts were loaded into a BIACORE 3000 apparatus (GE Healthcare) with a flow rate of 30 μl/min. The Fab off-rates (koff) were measured over a two minute period. Binding of Fabs to human and mouse MET was further characterized by ELISA using MET ECD in solid phase and periplasmic crude extract in solution.
TABLE 7 Fabs binding to both human MET (hMET) and mouse MET (mMET). Fabs are grouped in families based on their VH CDR3 sequence. Binding of Fabs to human and mouse MET ECD was determined by Surface Plasmon Resonance (SPR) and by ELISA. SPR values represent the koff (s⁻¹). ELISA values represent the Optical Density (OD) at 450 nm (AU, arbitrary units). Both SPR and ELISA were performed using crude periplasmic extracts. Fab concentration in the extract was not determined. Values are the mean of three independent measurements.

T1 sequence (P08581 25-1390): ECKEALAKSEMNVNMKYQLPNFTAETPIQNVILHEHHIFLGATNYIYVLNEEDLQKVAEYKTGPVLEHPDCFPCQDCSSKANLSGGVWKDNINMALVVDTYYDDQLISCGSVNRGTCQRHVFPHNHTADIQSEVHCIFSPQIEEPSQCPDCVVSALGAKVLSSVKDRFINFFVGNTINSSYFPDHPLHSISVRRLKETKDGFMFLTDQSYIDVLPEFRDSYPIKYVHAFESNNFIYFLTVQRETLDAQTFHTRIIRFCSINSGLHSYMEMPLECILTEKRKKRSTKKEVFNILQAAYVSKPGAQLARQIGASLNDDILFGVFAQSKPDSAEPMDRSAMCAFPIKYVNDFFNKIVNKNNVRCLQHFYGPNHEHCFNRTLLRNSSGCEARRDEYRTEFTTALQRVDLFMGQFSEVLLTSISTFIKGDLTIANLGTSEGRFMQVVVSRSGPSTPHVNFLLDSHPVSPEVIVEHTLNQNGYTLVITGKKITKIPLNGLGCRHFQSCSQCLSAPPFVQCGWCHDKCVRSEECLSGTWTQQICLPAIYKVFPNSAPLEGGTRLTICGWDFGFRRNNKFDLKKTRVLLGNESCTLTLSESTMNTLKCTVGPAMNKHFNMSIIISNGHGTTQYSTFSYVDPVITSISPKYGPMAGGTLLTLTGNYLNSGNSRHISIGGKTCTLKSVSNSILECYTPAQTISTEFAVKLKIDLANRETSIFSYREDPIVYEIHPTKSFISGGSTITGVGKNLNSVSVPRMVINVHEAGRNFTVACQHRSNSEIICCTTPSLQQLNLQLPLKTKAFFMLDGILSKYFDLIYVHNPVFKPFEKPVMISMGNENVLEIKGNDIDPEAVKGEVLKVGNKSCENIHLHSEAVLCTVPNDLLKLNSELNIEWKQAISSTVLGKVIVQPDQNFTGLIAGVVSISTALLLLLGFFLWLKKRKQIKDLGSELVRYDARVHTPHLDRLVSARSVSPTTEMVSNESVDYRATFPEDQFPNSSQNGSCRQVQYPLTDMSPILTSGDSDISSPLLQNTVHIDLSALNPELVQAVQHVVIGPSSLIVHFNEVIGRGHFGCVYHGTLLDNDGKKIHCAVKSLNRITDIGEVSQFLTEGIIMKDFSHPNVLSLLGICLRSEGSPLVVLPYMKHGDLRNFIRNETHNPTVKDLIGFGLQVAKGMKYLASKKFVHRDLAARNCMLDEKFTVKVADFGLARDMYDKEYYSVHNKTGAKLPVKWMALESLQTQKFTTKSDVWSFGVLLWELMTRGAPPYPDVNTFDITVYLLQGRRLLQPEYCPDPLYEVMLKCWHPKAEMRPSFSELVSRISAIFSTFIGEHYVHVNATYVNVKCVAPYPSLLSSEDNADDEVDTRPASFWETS

| Binder | EMAX (% relative to control) [1] [%] | EMAX (% relative to control) [4] [%] | IMAX (maximum % competition) [5] [%] | IMAX (maximum % competition) [6] [%] | cell scattering score, HPAF-II, 0.001 nM [7] [score 0-4] | cell scattering score, HPAF-II, 0.004 nM [7] [score 0-4] | cell scattering score, HPAF-II, 0.012 nM [7] [score 0-4] | cell scattering score, MLP29, 0.001 nM [8] [score 0-4] | cell scattering score, MLP29, 0.004 nM [8] [score 0-4] | cell scattering score, MLP29, 0.012 nM [8] [score 0-4] | cell scattering score, MLP29, 0.037 nM [8] [score 0-4] | cell scattering score, MLP29, 0.111 nM [8] [score 0-4] | cell scattering score, MLP29, 0.333 nM [8] [score 0-4] | cell scattering score, MLP29, 1.000 nM [8] [score 0-4] | cell scattering score, MLP29, 3.000 nM [8] [score 0-4] | cell scattering score, MLP29, 9.000 nM [8] [score 0-4] | protection from staurosporine, viability EC50, MCF10A [2] [nM] | protection from staurosporine, viability EMAX, MCF10A [2] [%] | protection from staurosporine, viability EC50, MLP29 [3] [nM] | protection from staurosporine, viability EMAX, MLP29 [3] [%] | other results |
| --- | --- | --- | --- | --- | --- | --- | --- | --- | --- | --- | --- | --- | --- | --- | --- | --- | --- | --- | --- | --- | --- |
| chimeric llama-human IgG1 mAb 71G12 (antibody, V domains shown) VH: QVQLQESGGDLVQPGGSLRVSCVVSGFTFSRYYMSWVRQAPGKGLEWVSSIDSYGYSTYYTDSVKGRFTISRDNAKNTLYLQMNSLKPEDTALYYCARAKTTWSYDYWGQGTQVTVSS VL: EIVLTQSPSSVTASVGGKVTINCKSSQSVFIASNQKTYLNWYQQRPGQSPRLVISYASTRESGIPDRFSGSGSTTDFTLTISSVQPEDAAVYYCQQAYSHPTFGQGTKVELK | 110 | 121 | 50.7 | 51.4 | 0 | 0 | 0 | 0 | 0 | 0 | 0 | 0 | 1 | 2 | 2 | 3 | > 32 | 39.4 | > 32 | 39.7 | cell scattering score, HPAF-II, 0.037 nM [7]: 0 score 0-4; cell scattering score, HPAF-II, 0.111 nM [7]: 0 score 0-4; cell scattering score, HPAF-II, 0.333 nM [7]: 1 score 0-4; cell scattering score, HPAF-II, 1.000 nM [7]: 2 score 0-4; cell scattering score, HPAF-II, 3.000 nM [7]: 2 score 0-4; cell scattering score, HPAF-II, 9.000 nM [7]: 3 score 0-4 |
| Fab 71G12 (Fab, V domains shown, llama Fab (VH-CH1, kappa VL-CL) with MYC flag, crude periplasmic extract) VH: QVQLQESGGDLVQPGGSLRVSCVVSGFTFSRYYMSWVRQAPGKGLEWVSSIDSYGYSTYYTDSVKGRFTISRDNAKNTLYLQMNSLKPEDTALYYCARAKTTWSYDYWGQGTQVTVSS VL: EIVLTQSPSSVTASVGGKVTINCKSSQSVFIASNQKTYLNWYQQRPGQSPRLVISYASTRESGIPDRFSGSGSTTDFTLTISSVQPEDAAVYYCQQAYSHPTFGQGTKVELK | – | – | – | – | – | – | – | – | – | – | – | – | – | – | – | – | – | – | – | – | ELISA OD450 [9]: 0.45 AU |
| chimeric llama-human IgG1 mAb 74C8 (antibody, V domains shown) VH: EVQLVESGGGLVQPGGSLRLSCAASGFTFRNYHMSWVRQVPGKGFEWISDINSAGGSTYYADSVKGRFTISRDNAKNTLYLEMNSLKPEDTALYYCARVNVWGVNYWGKGTLVSVSS VL: QTVVTQEPSLSVSPGGTVTLTCGLSSGSVTTSNYPGWFQQTPGQAPRTLIYNTNSRHSGVPSRFSGSISGNKAALTITGAQPEDEADYYCSLYPGSYTNVFGGGTHLTVL | 85.7 | 73.8 | 71.5 | 76.9 | 0 | 0 | 0 | 0 | 0 | 0 | 1 | 2 | 3 | 3 | 4 | 4 | > 32 | 41.7 | > 32 | 37.5 | cell scattering score, HPAF-II, 0.037 nM [7]: 1 score 0-4; cell scattering score, HPAF-II, 0.111 nM [7]: 2 score 0-4; cell scattering score, HPAF-II, 0.333 nM [7]: 3 score 0-4; cell scattering score, HPAF-II, 1.000 nM [7]: 3 score 0-4; cell scattering score, HPAF-II, 3.000 nM [7]: 4 score 0-4; cell scattering score, HPAF-II, 9.000 nM [7]: 4 score 0-4 |

The next lines start with results.

| EMAX (% relative to control) [1] [%] | EMAX (% relative to control) [4] [%] | IMAX (maximum % competition) [5] [%] | IMAX (maximum % competition) [6] [%] | cell scattering score, HPAF-II, 0.001 nM [7] [score 0-4] | cell scattering score, HPAF-II, 0.004 nM [7] [score 0-4] | cell scattering score, HPAF-II, 0.012 nM [7] [score 0-4] | cell scattering score, MLP29, 0.001 nM [8] [score 0-4] | cell scattering score, MLP29, 0.004 nM [8] [score 0-4] | cell scattering score, MLP29, 0.012 nM [8] [score 0-4] | cell scattering score, MLP29, 0.037 nM [8] [score 0-4] | cell scattering score, MLP29, 0.111 nM [8] [score 0-4] | cell scattering score, MLP29, 0.333 nM [8] [score 0-4] | cell scattering score, MLP29, 1.000 nM [8] [score 0-4] | cell scattering score, MLP29, 3.000 nM [8] [score 0-4] | cell scattering score, MLP29, 9.000 nM [8] [score 0-4] | Binder | protection from staurosporine, viability EC50, MCF10A [2] [nM] | protection from staurosporine, viability EMAX, MCF10A [2] [%] | protection from staurosporine, viability EC50, MLP29 [3] [nM] | protection from staurosporine, viability EMAX, MLP29 [3] [%] | other results |
| --- | --- | --- | --- | --- | --- | --- | --- | --- | --- | --- | --- | --- | --- | --- | --- | --- | --- | --- | --- | --- | --- |
| – | – | – | – | – | – | – | 0 | 1 | 2 | 3 | 4 | 4 | 4 | 4 | 4 | recombinant mouse HGF (R&D Systems) (ligand, UniProt Q08048 33-728, looked up, biotinylated at the N-terminus using NHS-LC-biotin in the competition ELISA only) QKKRRNTLHEFKKSAKTTLTKEDPLLKIKTKKVNSADECANRCIRNRGFTFTCKAFVFDKSRKRCYWYPFNSMSSGVKKGFGHEFDLYENKDYIRNCIIGKGGSYKGTVSITKSGIKCQPWNSMIPHEHSFLPSSYRGKDLQENYCRNPRGEEGGPWCFTSNPEVRYEVCDIPQCSEVECMTCNGESYRGPMDHTESGKTCQRWDQQTPHRHKFLPERYPDKGFDDNYCRNPDGKPRPWCYTLDPDTPWEYCAIKTCAHSAVNETDVPMETTECIQGQGEGYRGTSNTIWNGIPCQRWDSQYPHKHDITPENFKCKDLRENYCRNPDGAESPWCFTTDPNIRVGYCSQIPKCDVSSGQDCYRGNGKNYMGNLSKTRSGLTCSMWDKNMEDLHRHIFWEPDASKLNKNYCRNPDDDAHGPWCYTGNPLIPWDYCPISRCEGDTTPTIVNLDHPVISCAKTKQLRVVNGIPTQTTVGWMVSLKYRNKHICGGSLIKESWVLTARQCFPARNKDLKDYEAWLGIHDVHERGEEKRKQILNISQLVYGPEGSDLVLLKLARPAILDNFVSTIDLPSYGCTIPEKTTCSIYGWGYTGLINADGLLRVAHLYIMGNEKCSQHHQGKVTLNESELCAGAEKIGSGPCEGDYGGPLICEQHKMRMVLGVIVPGRGCAIPNRPGIFVRVAYYAKWIHKVILTYKL | – | – | 5.35 | 58.6 | – |
| 121 | 115 | 62.5 | 69.4 | 0 | 0 | 0 | 0 | 0 | 0 | 0 | 0 | 0 | 1 | 2 | 3 | chimeric llama-human IgG1 mAb 76G7 (antibody, V domains shown) VH: QVQLVESGGNLVQPGGSLRLSCAASGFTFSNYYMSWVRQAPGKGLEWVSDIYSDGSTTWYSDSVKGRFTISRDNAKNTLSLQMNSLKSEDTAVYYCARVKIYPGGYDAWGQGTQVTVSS VL: QAGLTQPPSVSGSPGKTVTISCAGNSSDVGYGNYVSWYQQFPGMAPKLLIYLVNKRASGITDRFSGSKSGNTASLTISGLQSEDEADYYCASYTGSNNIVFGGGTHLTVL | 25.4 | 51.9 | 30.1 | 50.2 | cell scattering score, HPAF-II, 0.037 nM [7]: 0 score 0-4; cell scattering score, HPAF-II, 0.111 nM [7]: 0 score 0-4; cell scattering score, HPAF-II, 0.333 nM [7]: 0 score 0-4; cell scattering score, HPAF-II, 1.000 nM [7]: 1 score 0-4; cell scattering score, HPAF-II, 3.000 nM [7]: 2 score 0-4; cell scattering score, HPAF-II, 9.000 nM [7]: 3 score 0-4 |
